This is an account of results in patent US20260116966A1 (KEYMED BIOSCIENCES CHENGDU, published 2026).

Assay [1] deals with T1, CD3 receptor on the surface of Jurkat cells (human, UniProt P07766 23-207).
T1 construct: whole, on cells; Whole CD3/TCR complex on Jurkat cells; also called Jurkat T
The assay is described as follows: flow cytometry on Jurkat cells.
Description: Jurkat cells in logarithmic growth phase were added with 200 μg/mL mouse IgG, and allowed to stand in an ice bath for 30 min. The cells were adjusted with 4% calf serum to 5×10⁵ cells/mL. 100 μL per well was added to a 96-well U-shaped plate, and centrifuged at 300 g. The supernatant was removed. 100 μL per well of serially diluted antibody was added, and incubated at 4° C. for 60 min. The secondary antibody 50 μL/well of Alexa Fluro647 labeled goat anti-human IgG Fc (1:300 dilution) was added, and incubated on ice for 20 min. After washing once, 50 μL/well of PI was added, incubated for 5 min, and detected by flow cytometry.

Assay [2] concerns the target T2, human GPRC5D (human, UniProt Q9NZD1 1-345).
T2 construct: Full length, on stably transfected cells (HEK293-hGPRC5D, CHO-hGPRC5D); Also used here for the endogenous GPRC5D of the GPRC5D+ myeloma lines MM.1R, MM.1S and NCI-H929; also called hGPRC5D; G-protein-coupled receptor family C group 5 member D
The assay is described as follows: flow cytometry, HEK293-hGPRC5D cells. For orientation: Flow cytometry measures light scatter and fluorescence of single cells or particles in a stream.
Description: Cell suspensions of HEK293-hGPRC5D and HEK293-hBCMA stably transfected cells in logarithmic growth phase were adjusted to 5×10⁵ cells/ml. Then, 100 μl/well of the cell suspension was added to a 96-well U-shaped plate, and centrifuged at 300 g for 5 min. The supernatant was discarded. 100 μL per well of serially diluted antibody was added, and incubated at 4° C. for 60 min. The secondary antibody 50 μL/well of Alexa Fluro647 labeled goat anti-human IgG Fc (1:300 dilution) was added, and incubated on ice for 20 min. After washing once, 50 μL/well of PI solution was added, incubated for 5 min, and detected by flow cytometry.

In assay [3] the target is T2, human GPRC5D. Description: cell-based or functional assay.
Assay [4] concerns the target T3, biotinylated CD3 recombinant antigen (CD3εγ) (Homo sapiens (Human), UniProt P07766 23-126; P09693 23-116, Biotinylated; site and chemistry not stated. The letters do not carry the biotin.).
T3 construct: also called CD3e antigen; copies: 1 + 1
Description: BLI, biotinylated antigen on SA probe, antibody as analyte. On the technique in general: Biolayer interferometry detects binding as a change in optical thickness at a sensor tip.

T2 sequence (Q9NZD1 whole entry): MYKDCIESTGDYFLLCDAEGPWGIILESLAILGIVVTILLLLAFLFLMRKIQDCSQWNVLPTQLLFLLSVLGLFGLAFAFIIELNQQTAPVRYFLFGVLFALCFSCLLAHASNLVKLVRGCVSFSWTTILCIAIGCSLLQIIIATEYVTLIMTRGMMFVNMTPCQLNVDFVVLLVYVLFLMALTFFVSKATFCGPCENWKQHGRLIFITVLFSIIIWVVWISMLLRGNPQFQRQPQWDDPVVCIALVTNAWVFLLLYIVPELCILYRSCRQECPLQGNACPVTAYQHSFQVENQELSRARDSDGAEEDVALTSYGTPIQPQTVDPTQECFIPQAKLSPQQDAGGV
T1 sequence (P07766 23-207): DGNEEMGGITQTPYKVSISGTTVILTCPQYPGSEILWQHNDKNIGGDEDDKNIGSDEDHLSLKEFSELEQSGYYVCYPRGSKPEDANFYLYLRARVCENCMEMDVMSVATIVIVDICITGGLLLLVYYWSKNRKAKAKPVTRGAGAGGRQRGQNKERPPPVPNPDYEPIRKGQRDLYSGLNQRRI
T3 sequence (P07766 23-126 limits assumed, chain 1 of 2): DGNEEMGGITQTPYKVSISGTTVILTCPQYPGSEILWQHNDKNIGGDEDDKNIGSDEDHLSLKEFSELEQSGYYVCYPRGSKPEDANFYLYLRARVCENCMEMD
T3 sequence (P09693 23-116 limits assumed, chain 2 of 2): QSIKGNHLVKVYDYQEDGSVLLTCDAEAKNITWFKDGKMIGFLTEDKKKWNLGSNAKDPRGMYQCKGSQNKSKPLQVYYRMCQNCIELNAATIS

B1: GPRC5D × BCMA × CD3 triTCE-v1 trispecific antibody (other)
light 1: DIVLTQSPASLAVSPGQRATITCRASKSVSTSGYSYMHWYQKKPGQPPKLLIYLASNLESGVPARFSGSGSGTDFTLTINPVEAEDTANYYCQHSRELPWTFGQGTKVEIKRTVAAPSVFIFPPSDEQLKSGTASVVCLLNNFYPREAKVQWKVDNALQSGNSQESVTEQDSKDSTYSLSSTLTLSKADYEKHKVYACEVTHQGLSSPVTKSFNRGEC
heavy 1: DIQMTQSPSSLSASVGDRVTITCQASQNVGTNVAWYQQKPGQAPKALIYSASYLNSGVPSRFSGSGSGTDFTFTISSLQPEDIATYFCQQYNSYLLTFGCGTKVEIKGGGGSGGGGSGGGGSQVQLVQSGAEVKKPGSSVKVSCKASGYSFTGYTMNWVRQAPGQCLEWMGLINPYNGGTRYNQKFQGRVTITADESTSTAYMELSSLRSEDTAVYYCARWALRYGMDYWGQGTLVTVSSGGGGSGGGGSGGGGSQVQLVQSGSELKKPGASVKVSCKASGYIFTNFGMNWVREAPGQGLEWMGWINTYTGEQIYADGFTGRFVFSLDTSVSTAYLQISSLKAEDTAVYFCARGEIYYGYDVGFVYWGQGTLVTVSSASTKGPSVFPLAPCSRSTSESTAALGCLVKDYFPEPVTVSWNSGALTSGVHTFPAVLQSSGLYSLSSVVTVPSSSLGTKTYTCNVDHKPSNTKVDKRVESKYGPPCPPCPAPEFEGGPSVFLFPPKPKDTLMISRTPEVTCVVVDVSQEDPEVQFNWYVDGVEVHNAKTKPREEQFNSTYRVVSVLTVLHQDWLNGKEYKCKVSNKGLASSIEKTISKAKGQPREPQVCTLPPSQEEMTKNQVSLSCAVKGFYPSDIAVEWESNGQPENNYKTTPPVLDSDGSFFLVSKLTVDKSRWQEGNVFSCSVMHEALHNHYTQKSLSLSLGK
light 2: QAVVTQEPSLTVSPGGTVTLTCRSSTGAVTTSNYANWVQEKPGQAPRGLIGGTNKRAPWTPARFSGSLLGGKAALTITGAQAEDEAEYYCVLWYSNLWVFGGGTKLTVLGQPKAAPSVTLFPPSSEELQANKATLVCLISDFYPGAVTVAWKADSSPVKAGVETTTPSKQSNNKYAASSYLSLTPEQWKSHRSYSCQVTHEGSTVEKTVAPTECS
heavy 2: EVQLVESGGGLVQPGGSLRLSCAASGFTFNTYAMNWVRKAPGKGLEWVGRIRSKYNNYATYYADSVKDRFTISRDDSKNSLYLQMNSLKTEDTAVYYCVRHGNFGNSYVSWFAYWGQGTLVTVSSASTKGPSVFPLAPCSRSTSESTAALGCLVKDYFPEPVTVSWNSGALTSGVHTFPAVLQSSGLYSLSSVVTVPSSSLGTKTYTCNVDHKPSNTKVDKRVESKYGPPCPPCPAPEFEGGPSVFLFPPKPKDTLMISRTPEVTCVVVDVSQEDPEVQFNWYVDGVEVHNAKTKPREEQFNSTYRVVSVLTVLHQDWLNGKEYKCKVSNKGLASSIEKTISKAKGQPREPQVYTLPPCQEEMTKNQVSLWCLVKGFYPSDIAVEWESNGQPENNYKTTPPVLDSDGSFFLYSKLTVDKSRWQEGNVFSCSVMHEALHNHYTQKSLSLSLGK
notes: Trispecific antibody: GPRC5D scFv fused to the N-terminus of the heavy chain of the BCMA arm
Take B1: the binding result in assay [1] is on record as “binds”. Besides, a half-maximal effect in assay [2] (EC50) was put at 5.7 nM. The “TDCC EC50 (nM), HEK293-hGPRC5D” value in assay [3] amounted to 0.074 nM.

B2: GPRC5D × BCMA × CD3 triTCE-v4 trispecific antibody (other)
light 1: B1 light 2
heavy 1: QVQLVQSGAEVKKPGSSVKVSCKASGYSFTGYTMNWVRQAPGQCLEWMGLINPYNGGTRYNQKFQGRVTITADESTSTAYMELSSLRSEDTAVYYCARWALRYGMDYWGQGTLVTVSSGGGGSGGGGSGGGGSDIQMTQSPSSLSASVGDRVTITCQASQNVGTNVAWYQQKPGQAPKALIYSASYLNSGVPSRFSGSGSGTDFTFTISSLQPEDIATYFCQQYNSYLLTFGCGTKVEIKGGGGSGGGGSGGGGSEVQLVESGGGLVQPGGSLRLSCAASGFTFNTYAMNWVRKAPGKGLEWVGRIRSKYNNYATYYADSVKDRFTISRDDSKNSLYLQMNSLKTEDTAVYYCVRHGNFGNSYVSWFAYWGQGTLVTVSSASTKGPSVFPLAPCSRSTSESTAALGCLVKDYFPEPVTVSWNSGALTSGVHTFPAVLQSSGLYSLSSVVTVPSSSLGTKTYTCNVDHKPSNTKVDKRVESKYGPPCPPCPAPEFEGGPSVFLFPPKPKDTLMISRTPEVTCVVVDVSQEDPEVQFNWYVDGVEVHNAKTKPREEQFNSTYRVVSVLTVLHQDWLNGKEYKCKVSNKGLASSIEKTISKAKGQPREPQVYTLPPCQEEMTKNQVSLWCLVKGFYPSDIAVEWESNGQPENNYKTTPPVLDSDGSFFLYSKLTVDKSRWQEGNVFSCSVMHEALHNHYTQKSLSLSLGK
light 2: B1 light 1
heavy 2: QVQLVQSGSELKKPGASVKVSCKASGYIFTNFGMNWVREAPGQGLEWMGWINTYTGEQIYADGFTGRFVFSLDTSVSTAYLQISSLKAEDTAVYFCARGEIYYGYDVGFVYWGQGTLVTVSS
notes: Trispecific antibody: GPRC5D scFv fused to the N-terminus of the heavy chain of the CD3 arm
B2 came in with an EC50 in assay [2] of 9.9 nM. Besides, the “TDCC EC50 (nM), HEK293-hGPRC5D” value in assay [3] worked out at 0.446 nM. The Kd in assay [4] worked out at 64.4 nM.

B3: GPRC5D × BCMA × CD3 triTCE-v2 trispecific antibody (other)
light 1: B1 light 1
heavy 1: QVQLVQSGAEVKKPGSSVKVSCKASGYSFTGYTMNWVRQAPGQCLEWMGLINPYNGGTRYNQKFQGRVTITADESTSTAYMELSSLRSEDTAVYYCARWALRYGMDYWGQGTLVTVSSGGGGSGGGGSGGGGSDIQMTQSPSSLSASVGDRVTITCQASQNVGTNVAWYQQKPGQAPKALIYSASYLNSGVPSRFSGSGSGTDFTFTISSLQPEDIATYFCQQYNSYLLTFGCGTKVEIKGGGGSGGGGSGGGGSQVQLVQSGSELKKPGASVKVSCKASGYIFTNFGMNWVREAPGQGLEWMGWINTYTGEQIYADGFTGRFVFSLDTSVSTAYLQISSLKAEDTAVYFCARGEIYYGYDVGFVYWGQGTLVTVSSASTKGPSVFPLAPCSRSTSESTAALGCLVKDYFPEPVTVSWNSGALTSGVHTFPAVLQSSGLYSLSSVVTVPSSSLGTKTYTCNVDHKPSNTKVDKRVESKYGPPCPPCPAPEFEGGPSVFLFPPKPKDTLMISRTPEVTCVVVDVSQEDPEVQFNWYVDGVEVHNAKTKPREEQFNSTYRVVSVLTVLHQDWLNGKEYKCKVSNKGLASSIEKTISKAKGQPREPQVCTLPPSQEEMTKNQVSLSCAVKGFYPSDIAVEWESNGQPENNYKTTPPVLDSDGSFFLVSKLTVDKSRWQEGNVFSCSVMHEALHNHYTQKSLSLSLGK
light 2: B1 light 2
heavy 2: B1 heavy 2
notes: as for B1
B3: in assay [1], the binding result is reported as “binds”. Also, the EC50 in assay [2] turned out to be 7.9 nM. Moreover, the “TDCC EC50 (nM), HEK293-hGPRC5D” value in assay [3] was 0.045 nM.

The EC50 is the concentration needed to bring the measured effect to its halfway point. A low value points to a more potent agent. For orientation: Kd means the free concentration of one partner at which half of the binding sites on the other are occupied at equilibrium, for simple one-to-one binding.
